Results reported in the RNAGym collection of RNA variant scans (doi:10.1073/pnas.2313332121).

B1: TPR t1 (parent)
chain: GACCAAUCUGCCCUCAGAGCUCGAGAACAUCUUCGGAUGCAGAGGAGGCAGGCUUCGGUGGCGCGAUAGCGCCAACGUCCUCAACCUCCAAUGCAUCCCACCACAUGAUGAUGCCUGAAGAGCCUUGGUUUUUUG

Variants of: B1
Assay: polymerase ribozyme fitness, log enrichment relative to wild type (log ratio); higher = more active; in vitro selection for triplet polymerase activity
How it was run: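 Fitness is a logarithmic measure of how a genotype enriched relative to the wild type, with replicate averages weighted by inverse variance. The logarithm uses base 2, and enrichment came from Illumina sequencing of input and output libraries. Those libraries were PCR-built, transcribed mutants of each subunit of a heterodimeric triplet polymerase ribozyme, passed through one triplicate in vitro selection round that included frozen incubation at −7 °C, gel excision of extended constructs and streptavidin-bead capture. Genotypes were kept only if they had ≥10 input reads and ≥1 read per output.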

First: GACCAAUCUGCCCUCAGAGCUCGAGAACAUCUUCGGAUGCAGAGGAGGCAGGGUUCGGUGGCGCGAUAGCGCCAACGUCCUCAACCUCCAAUGCAUCCCACCACAUGAUGAUGCUUGAAGAGCCUUGGUUUUUUG
Second: GACCAAUCUGCCCUCAGAGCUCGAGAACAUCUUCGGAUGCAGAGGAGGCAGGGUUCGGUGGCGCGAUAUCGCCAACGUCCUCAACCUCCAAUGCAUCCCACCACAUGAUGAUGCCUGAAGAGCCUUGGUUUUUUG
The “polymerase ribozyme fitness (log ratio)” value of the first is lower: -1.56 for the first, -0.127 for the second.

Going from GACCAAUCUGCCCUCAGAGCUCGAGAACAUCUUCGGAUGCAGAGGAGGCAGGUUUCGGUGGCGAGAUAGCGUCAACGUCCUCAACCUCCAAUGCCUCCCACCACCUGAUGAUGCCUGAAGAUGCUUGGUUUUUUG to GACCAAUCUGCCCUCAGAGCUCGAGAACAUCUUCGGAUGCAGAGGAGGCAGGGUUCGGUGUCGCGAUAGCGCCAACUUCCUCAACCUCCAAUGCAUCCCAGCACAUGAUGAUGCCUGAACAGCCUUGGUUUUUUG, the “polymerase ribozyme fitness (log ratio)” value rises from -6.4 to -3.46.

First: GACCAAUCUGCCCUCAGAGCUCGAGAACAUCUUCGGAUGCAGAGGAGGCAGGUUUCGGUGGCGCGAUAGCGGCAACGUCCUCAACCUCCAAUGCAUCCCACCACAUGAUGAUCCCUGAAGAGCCUUGGAUUUUUG
Second: GACCAAUCUGCCCUCAGAGCUCGAGAACAUCUUCGGAUGCAGAGGAGGCAGGGUUCGGUGCCGCGCUAGCGCCAACGUCCUCAACCUCCAAUGCAUCCCACCACAUGAUGAUGCCUGAAGAGCCUUGGUUUUUUG
The “polymerase ribozyme fitness (log ratio)” value of the first is lower: -4.76 for the first, -2.24 for the second.

First: GACCAAUCUGCCCUCAGAGCUCGAGAACAUCUUCGGAUGCAGAGGAGGCAGGGUUCGGUGGCGCGAUAGCGCCAACGUCCUCAACCUCCAAUGCAUCCCACCACAUGAUGAUGCCUGAAGAGCCUUGGUUUUUUU
Second: GACCAAUCUGCCCUCAGAGCUCGAGAACAUCUUCGGAUGCAGAGGAGGCAGGUUUCGGUGGCGCGAUAGCGGCAACGUCCUCAACCUUCAAUGCAUCCCACCACGUGAUGAUGCCUGAAGAGCCUUGGUUUUUUG
The “polymerase ribozyme fitness (log ratio)” value of the first is higher: -1.51 for the first, -2.32 for the second.

Going from GACCAAUCUGCCCUCAGAGCUCGAGAACAUCUUCGGAUGCAGAGGAGGCAGGGUUCGGUGGCACGAUAGCGCCAACGUCCUCAACCUCCAAUGCAUCCCACCACAUGAUGAUGCCUGAAGAGCCUUGGUUUUUUG to GACCAAUCUGCCCUCAGAGCUCGAGAACAUCUUCGGAUGCAGAGGAGGCAGGUUUCGGUGGCGCGAUAGCGCCAACGUCCUCAACCUCCAAUGCAUCCCACCACCUGAUGAUGCCUGAACAACCUUGGAUUUUUG, the “polymerase ribozyme fitness (log ratio)” value falls from -2.58 to -5.42.

Going from GACCAAUCUGCCCUCAGAGCUCGAGAACAUCUUCGGAUGCAGAGGAGGCAGGGUUCGGGGGCGCGAUAGCGCCAACGUCCUCAACCUCCAAUGGAUCCCACCACAUGAUGAUGCCUGAAGAGCCUUGGUUUUUUG to GACCAAUCUGCCCUCAGAGCUCGAGAACAUCUUCGGAUGCAGAGGAGGCAGGGUUCGGUGGCACGAUAGCGCCAACGUCCUCAACCUCCAAUGCGUCCCACCACAUGAUAAUGCCUGAAGAGCCCUGGUUUUUUG, the “polymerase ribozyme fitness (log ratio)” value falls from -0.648 to -4.78.

First: GACCAAUCUGCCCUCAGAGCUCGAGAACAUCUUCGGAUGCAGAGGAGGCAGGGUUCGGUUGCGCGAUAGCGCCAACGUCCUCAACCUCCAAUGCAUCCCACCAAAUGAUGAUGUCUGAAGAGCCUUGGUUUUUUG
Second: GACCAAUCUGCCCUCAGAGCUCGAGAACAUCUUCGGAUGCAGAGGAGGCAGGUUUCGGUGGCGCGAUAGUGCCAACGUCCUCAACCUCCAAUGCAUCCCACCACAUGAUGAUGCCUGAAGAGCCUUGGUUUUUUG
The “polymerase ribozyme fitness (log ratio)” value of the first is lower: -5.11 for the first, -0.962 for the second.

Going from GACCAAUCUGCCCUCAGAGCUCGAGAACAUCUUCGGAUGCAGAGGAGGCAGGGUUCGGUAGCGCGAUAGCGCCAACGUCCUCAACCUCCAAUGCAUCCCACCAAAUGAUGAUGCCUGAAGAGCCAUGGUUAUUUG to GACCAAUCUGCCCUCAGAGCUCGAGAACAUCUUCGGAUGCAGAGGAGGCAGGGUUCGGUGGCGCGAUAGCGCCAACGUCCUCAACCGCCAAUGCAUCCCACCACAUGAUGAUGCCUGAAGAGCCUUUGUUUUGUG, the “polymerase ribozyme fitness (log ratio)” value rises from -3.15 to -0.973.

Going from GACCAAUCUGCCCUCAGAGCUCGAGAACAUCUUCGGAUGCAGAGGAGGCAGGGUUCUGUGGCGCGAUAGCGCCAACGUCCUCAACCUCCAAUGCAUCCCACCACAUGAUGAUGCCUGAAGAGCCUUGGUUUUUUG to GACCAAUCUGCCCUCAGAGCUCGAGAACAUCUUCGGAUGCAGAGGAGGCAGGUUUCGGUGGCGCGAUAGCGCCAACGUCCUCAACCUCCUAUGCAUCCCAACACAUGAUGAUGCCUGAAGAGCCUUGGUUUUUUG, the “polymerase ribozyme fitness (log ratio)” value falls from 0.0545 to -2.09.

First: GACCAAUCUGCCCUCAGAGCUCGAGAACAUCUUCGGAUGCAGAGGAGGCAGGUUUCGGUGGGGCGAUAGCGCCAACGUCCUCAACCUCCAAUGCAUCCCACCACAUGAUGAUGCCUGAAGAGCCUUGGUUUUUUG
Second: GACCAAUCUGCCCUCAGAGCUCGAGAACAUCUUCGGAUGCAGAGGAGGCAGGUUUGGGUGGCGCGAUAGCGCCAACGUCCUCAACCUCCAAUGCAUCCCAACACAUGAUGAUGCCUGAAGCGCCUUGGUUUUUUC
The “polymerase ribozyme fitness (log ratio)” value of the first is lower: -1.49 for the first, 0.621 for the second.

Going from GACCAAUCUGCCCUCAGAGCUCGAGAACAUCUUCGGAUGCAGAGGAGGCAGGUUUCGGUGGCGCGAUAGCGACAACGUCCUCAACCUCCUAUGCAUCCCAACACAUGAUGAUGCCUGAAGAGCCUUGGUUUUUUG to GACCAAUCUGCCCUCAGAGCUCGAGAACAUCUUCGGAUGCAGAGGAGGCAGGUUUCGGUGGUGCGAUAGCGCCAACGUCCUCAACCUCCAAUGCAUCCCACCACAUGAUGUUGCCUGUAGAGCCUUGGUUUUUUG, the “polymerase ribozyme fitness (log ratio)” value falls from -2.92 to -3.63.

Compared with GACCAAUCUGCCCUCAGAGCUCGAGAACAUCUUCGGAUGCAGAGGAGGCAGGUUUCGGUGGCGCGAUAGCGCCAACGUCCUCAACCUCCAAUGCAUCCCACCUCAUGAUGAUGCCCUCAGAGCCUUGGUUUUUUG, GACCAAUCUGCCCUCAGAGCUCGAGAACAUCUUCGGAUGCAGAGGAGGCAGGGUUCAGUGGCGCGGUAGAGCCAACGUCCUCAACCUCCAAUGCAUCCCACCACAUGAUGAUUCCUGAAGAGCCUUGGUUUUUUG is lower in “polymerase ribozyme fitness (log ratio)” value: -5.82 for the first, -7.08 for the second.

Compared with GACCAAUCUGCCCUCAGAGCUCGAGAACAUCUUCGGAUGCAGAGGAGGCAGGGUUCGGUGGCGCGAUAGCGCCAACAUCCUCAACCUCCAAUGCAUCCCACUACAUGAUGAUGCCUGAACAGCCAUGGUUUUUUG, GACCAAUCUGCCCUCAGAGCUCGAGAACAUCUUCGGAUGCAGAGGAGGCAGGGUUCGGUGGCGCGAUAGCGCCAACGUCCUCAACCUCCAAUGCAUCCCACCACAUGAUGAUGCCUGAAAAGCCUUGGUUUUUUG is higher in “polymerase ribozyme fitness (log ratio)” value: -2.26 for the first, 0.668 for the second.

First: GACCAAUCUGCCCUCAGAGCUCGAGAACAUCUUCGGAUGCAGAGGAGGCAGGGUUCGGUGGCGCGAUAGCGCCAACGUCCUCAACCUCCAAUGCAUCCCACCAUAUGAUGAUGUCUGAAUAGGAUUGGUUUUUUG
Second: GACCAAUCUGCCCUCAGAGCUCGAGAACAUCUUCGGAUGCAGAGGAGGCAGGUUUCGGUGGCGCGAUAGCGCCAACGUCCUCAACCUCCAUUGCAUCCCACCACAUGAUGAUGCCUGAAGAGCCUUGGUUUUUUG
The “polymerase ribozyme fitness (log ratio)” value of the first is higher: -0.873 for the first, -2.05 for the second.

Compared with GACCAAUCUGCCCUCAGAGCUCGAGAACAUCUUCGGAUGCAGAGGAGGCAGGUUUCGGUGGCGCGAUAGCGCCAGCGUCCUCAUCCUCCAAUGCAUCCCACCACAUGAUGAUGCCUGAAGAGCCUUGGUUUUUUG, GACCAAUCUGCCCUCAGAGCUCGAGAACAUCUUCGGAUGCAGAGGAGGCAGGGUUCGGUGGCGCGAUAGCGCCAACGUCCUCAACCUCCAAUGCAUCCCACCACAUGAUUAUGCCUGAAGAGCCUUGGUUUUUUG is lower in “polymerase ribozyme fitness (log ratio)” value: -0.747 for the first, -1.58 for the second.

First: GACCAAUCUGCCCUCAGAGCUCGAGAACAUCUUCGGAUGCAGAGGAGGCAGGGUUCGAUGGCGCGAUAGCGCCAACGUCCUCAACCUCCAAUGCAUCCCACCACAUGAUGAUGCAUGAAGAGCCUUGGUUUUUUG
Second: GACCAAUCUGCCCUCAGAGCUCGAGAACAUCUUCGGAUGCAGAGGAGGCAGGGUUCGGUUGCGCUAUAGCGCCAACGUCCUCAACCUCCAAUGCAUCCCACCAUAUGAUGAUGCCUGAAGAGCCUUGGUUUUUUG
The “polymerase ribozyme fitness (log ratio)” value of the first is higher: -0.718 for the first, -7.04 for the second.

GACCAAUCUGCCCUCAGAGCUCGAGAACAUCUUCGGAUGCAGAGGAGGCAGGGUUCGGUGACGCGAUAGCGCCAACGUCCUCAACCUACAAUGCAUCCCACCACAUGAUGUGGCCUGAAGAGCAUUGGUUUUUUG and GACCAAUCUGCCCUCAGAGCUCGAGAACAUCUUCGGAUGCAGAGGAGGCAGGGUUCGGUGGCGCGAUAGCGCCAACGUCCACAACCUCCAAUGCAUCCCACCACAUGAUGAUGCCUGAAGAGCCUUGGUUGUUUG are within 0.2 log units of each other in “polymerase ribozyme fitness (log ratio)” value: -1 for the first, -0.825 for the second.

Going from GACCAAUCUGCCCUCAGAGCUCGAGAACAUCUUCGGAUGCAGAGGAGGCAGGUUUCGGUGGCGGGAUAGCGCUAACGUCCUCAACCUCCCAUGCAUCCCACCACAUGAUGAGGCCUGAAGAGCCUUGGUUUUUUG to GACCAAUCUGCCCUCAGAGCUCGAGAACAUCUUCGGAUGCAGAGGAGGCAGGGUUCGGUGGCGCGAUAGCCUCAACGUCCUCAACCUCCAAUGCAUCCCACCACAUGAUGAUGCCUGAAGAGCCUUGGUUUUUUG, the “polymerase ribozyme fitness (log ratio)” value rises from -7.28 to -0.79.

Compared with GACCAAUCUGCCCUCAGAGCUCGAGAACAUCUUCGGAUGCAGAGGAGGCAGGGUUCGGUGGCGCGAUAGCGCCAACGUCCUCAACCUCCAAUGCAUCCCACCACAAGAUGAUGCCUGAAGAGCCUUGGUUUUUUG, GACCAAUCUGCCCUCAGAGCUCGAGAACAUCUUCGGAUGCAGAGGAGGCAGGGUUCGGUGGCGCGAUAGCGCCAACGUCCUCAACCUCCAAUGCAUCCCACCACAUGAUGAUGCCUGAAGAACCUUGGUUUUUUG is lower in “polymerase ribozyme fitness (log ratio)” value: -0.474 for the first, -1.37 for the second.

Going from GACCAAUCUGCCCUCAGAGCUCGAGAACAUCUUCGGAUGCAGAGGAGGCAGGUUUCGGUGGGGCGAUAGUGCCAACGUCCUCAACCUCCAAUGCAUCCCACCACAUGAUAAUGCCUGAAGAGCCUUGGUUUUUUG to GACCAAUCUGCCCUCAGAGCUCGAGAACAUCUUCGGAUGCAGAGGAGGCAGGGUUCGGUGGCGCGAUAGCGCCAACGUCCUCAACCUCCAAUGCAUCCCACCACAUGAUGAUGCCUGAAGAGCCUUUGUUUUUUG, the “polymerase ribozyme fitness (log ratio)” value rises from -6.1 to -1.46.

Compared with GACCAAUCUGCCCUCAGAGCUCGAGAACAUCUUCGGAUGCAGAGGAGGCAGGGUUCGGUGGCGCGAUAGCGCCAACGUCCUCAACCUCCAAUGCAUCCCACCACAUGAUGAUGCCUGAAGAGCCAUGGUUUUUUG, GACCAAUCUGCCCUCAGAGCUCGAGAACAUCUUCGGAUGCAGAGGAGGCAGGGUUCGGUGGCCCGAUAGCGCCAACGUCCUCAACCUCCACUGCAUCCCACCACAUGAUGAUGCCUGCAGAGCCUUGGUUUUUUG is lower in “polymerase ribozyme fitness (log ratio)” value: -2.2 for the first, -4.54 for the second.
